Key:
[1] = biological target: T1, FcγIIIA Receptor on the effector cells (human, UniProt P08637 17-254); assay: cell-based or functional assay
[2] = biological target: T2, FcγRIIIa 158V receptor (SPR assay) (UniProt P08637 17-208, limits assumed); assay: SPR, receptor immobilised
T2 construct: Immobilised on the SPR chip by amine coupling; The 158V allotype uses mature numbering
Description: (§1) The method follows a direct binding assay methodology where the FcγRIIIa receptor is directly immobilized onto the flow cell on a sensor chip surface and samples are injected over the chip to assess binding. […] Independent duplicates of sample dilutions are injected over the chip, followed by surface regeneration between each cycle. The binding is measured in response units (RU). The kinetics of the binding reaction is determined by measuring changes in SPR due to the increase in mass in the close proximity to the biosensor chip surface. Change in the mass of the complex as a function of time is visualized as a sensorgram.
(§2) The equilibrium dissociation constants (K_D) of each sample is determined for each receptor.

[3] = biological target: T3, FcγRIIIa 158F receptor (SPR assay) (UniProt P08637 17-208, limits assumed); assay: SPR, receptor immobilised
T3 construct: Immobilised on the SPR chip by amine coupling
Description: as §1, §2

[4] = biological target: T2, FcγRIIIa 158V receptor (SPR assay); assay: SPR, receptor amine-coupled to the chip, antibody injected, 1:1 kinetics; average of 4 values
Description: as §1, §2

[5] = biological target: T4, CD20 on Jeko-1, Raji and Daudi cells (human, UniProt P11836 1-297); assay: flow cytometry (FACS) on Daudi cells, PE conjugated anti-human secondary antibody; Daudi cells
T4 construct: whole, on cells; also called cell surface CD20
T4 sequence (looked up): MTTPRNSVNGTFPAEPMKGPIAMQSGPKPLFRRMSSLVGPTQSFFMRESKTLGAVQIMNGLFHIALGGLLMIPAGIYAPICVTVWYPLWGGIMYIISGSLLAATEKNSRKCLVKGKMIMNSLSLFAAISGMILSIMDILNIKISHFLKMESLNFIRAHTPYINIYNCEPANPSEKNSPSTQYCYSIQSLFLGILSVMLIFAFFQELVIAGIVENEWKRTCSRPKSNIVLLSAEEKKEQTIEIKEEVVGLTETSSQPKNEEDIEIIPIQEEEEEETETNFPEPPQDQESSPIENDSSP
Description: (§3) A six-point dilution series of the samples, in duplicates and in the concentration range of 40 μg/ml-0 ug/ml with a dilution factor of 5 were used. Cells were incubated with sample dilutions; binding was detected using a PE conjugated anti-human secondary antibody.

[6] = biological target: T5, HRP conjugated human C1q (human, UniProt P02745 23-245; P02746 28-253; P02747 29-245, peroxidase (HRP) conjugated; site not stated); assay: ELISA, antibody coated on the plate, HRP conjugated human C1q
T5 construct: also called Peroxidase conjugated C1q
Description: (§4) The C1q binding assay used for this analysis is an ELISA assay. Samples were coated on ELISA plates, HRP conjugated human C1q is incubated with samples on the plate. The bound HRP, in the presence of substrate TMB, generates a colorimetric signal. […] Sample dilutions are coated onto ELISA plates, and the plates incubated for 1 hour±30 min at room temperature. After coating, the plates are washed, blocked, and washed again. Peroxidase conjugated C1q was added, and the plates incubated for 1.5 hours±30 minutes at room temperature. After incubation and washing, a tetramethylbenzidine (TMB) substrate solution was added and plates incubated at room temperature for 7 minutes (~1 min/+30 seconds). This produces a colorimetric reaction which is proportional to the level of C1q bound. The reaction is stopped with the addition of 1M sulfuric acid and the color is measured at 450 nm using a Molecular Devices SPECTRAMAX® microplate reader. SOFTMAX® PRO is used to analyze the data with weighted nonlinear regression using a 4-parameter logistic fit. […] EC50 of each test sample, based on the 4-parameter logistic fitted curve, were generated for additional information.

[7] = biological target: T3, FcγRIIIa 158F receptor (SPR assay); assay: SPR, receptor amine-coupled to the chip, antibody injected, steady state affinity; average of 4 values
Description: as §1, §2

[8] = biological target: T1, FcγIIIA Receptor on the effector cells; assay: cell-based or functional assay; remark: listed apart in the source
[9] = biological target: T5, HRP conjugated human C1q; assay: ELISA: antibody dilutions coated on the plate, HRP conjugated human C1q added, TMB, OD 450
Description: as §4

[10] = biological target: T1, FcγIIIA Receptor on the effector cells; assay: cell-based or functional assay; remark: listed apart in the source
[11] = biological target: T4, CD20 on Jeko-1, Raji and Daudi cells; assay: flow cytometry (FACS) on Raji cells, PE conjugated anti-human secondary antibody
Description: as §3

[12] = biological target: T4, CD20 on Jeko-1, Raji and Daudi cells; assay: cell-based MSD electrochemiluminescence binding assay on CD20 expressing Jeko-1 cells
[13] = biological target: C1q in the complement system (rabbit serum as the source of complement) (rabbit); assay: cell-based or functional assay
[14] = biological target: T6, FcγRI (human Fc receptor panel, Octet) (human, UniProt P12314 16-288, limits assumed); assay: BLI (Octet HTX), receptor on anti-penta-His biosensor, 1:1 model
T6 construct: Captured on anti-penta-His biosensors, so it carries a His tag
Description: (§5) This analysis was performed by LakePharma. Binding characterization were carried out on Octet HTX instrument at 25° C. Human Fc receptor panel were loaded onto Anti-Penta His (H1S1K) biosensors. Loaded sensors were dipped into a serial dilutions of the testing samples (300 nM start, 1:3 dilution, 7 points). Kinetic constants were calculated using a monovalent (1:1) binding model.

[15] = biological target: T7, FcγRIIIB (human Fc receptor panel, Octet) (human, UniProt O75015 17-200); assay: as above
T7 construct: Captured on anti-penta-His biosensors, so it carries a His tag
Description: as §5

[16] = biological target: T8, FcRn (human Fc receptor panel, Octet) (human, UniProt P55899 24-297; P61769 21-119); assay: as above
T8 construct: Captured on anti-penta-His biosensors, so it carries a His tag
Description: as §5

[17] = biological target: T9, FcγRIIB/C (human Fc receptor panel, Octet) (human, UniProt P31994 46-217, limits assumed); assay: as above
T9 construct: Captured on anti-penta-His biosensors, so it carries a His tag
T9 sequence (looked up): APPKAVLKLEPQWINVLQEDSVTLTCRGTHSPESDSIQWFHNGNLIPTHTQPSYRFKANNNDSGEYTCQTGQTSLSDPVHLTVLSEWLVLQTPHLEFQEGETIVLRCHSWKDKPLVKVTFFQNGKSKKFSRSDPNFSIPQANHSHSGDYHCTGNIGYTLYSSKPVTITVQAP
Description: as §5

[18] = biological target: T10, FcγRIIIA V158 (human Fc receptor panel, Octet) (human, UniProt P08637 17-208); assay: as above
T10 construct: Captured on anti-penta-His biosensors, so it carries a His tag; It is kept apart from the SPR receptor because the constructs may differ; also called FcγRIIIa 158V
Description: as §5

[19] = biological target: T11, FcγRIIA (human Fc receptor panel, Octet) (human, UniProt P12318 36-218, limits assumed); assay: as above
T11 construct: Captured on anti-penta-His biosensors, so it carries a His tag
T11 sequence (looked up): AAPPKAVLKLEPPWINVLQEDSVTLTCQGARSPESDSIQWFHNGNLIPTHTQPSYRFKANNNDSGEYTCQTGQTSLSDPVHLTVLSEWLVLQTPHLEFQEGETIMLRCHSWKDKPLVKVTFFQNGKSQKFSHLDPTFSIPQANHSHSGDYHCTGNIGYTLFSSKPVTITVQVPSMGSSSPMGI
Description: as §5

[20] = biological target: T12, FcγRIIIA F158 (human Fc receptor panel, Octet) (human, UniProt P08637 17-208); assay: as above
T12 construct: Captured on anti-penta-His biosensors, so it carries a His tag; It is kept apart from the SPR receptor because the constructs may differ
Description: as §5

T1 sequence (P08637 17-254): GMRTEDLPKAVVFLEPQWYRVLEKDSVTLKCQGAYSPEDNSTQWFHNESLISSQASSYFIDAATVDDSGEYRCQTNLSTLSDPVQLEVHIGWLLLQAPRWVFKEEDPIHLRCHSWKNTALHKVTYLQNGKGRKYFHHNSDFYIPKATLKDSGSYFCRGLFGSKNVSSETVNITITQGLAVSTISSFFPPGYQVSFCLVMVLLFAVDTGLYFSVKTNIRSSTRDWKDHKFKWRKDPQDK
T2 sequence (P08637 17-208 F176V limits assumed): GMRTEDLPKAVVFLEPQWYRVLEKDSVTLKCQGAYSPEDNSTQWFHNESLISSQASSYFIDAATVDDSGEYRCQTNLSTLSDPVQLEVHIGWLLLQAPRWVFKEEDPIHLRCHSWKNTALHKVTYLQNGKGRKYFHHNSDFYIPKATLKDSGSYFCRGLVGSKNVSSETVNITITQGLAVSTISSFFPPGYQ
T3 sequence (P08637 17-208 limits assumed): as the sequence (P08637 17-208 F176V limits assumed) above, with V160F counted along it
T5 sequence (P02745 23-245 limits assumed, chain 1 of 3): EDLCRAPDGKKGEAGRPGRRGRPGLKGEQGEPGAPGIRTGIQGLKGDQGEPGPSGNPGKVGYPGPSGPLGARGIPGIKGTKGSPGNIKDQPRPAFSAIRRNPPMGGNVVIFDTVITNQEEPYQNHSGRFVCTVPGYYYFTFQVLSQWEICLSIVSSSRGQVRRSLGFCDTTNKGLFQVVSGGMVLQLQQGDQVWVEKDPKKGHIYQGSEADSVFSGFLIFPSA
T5 sequence (P02746 28-253 limits assumed, chain 2 of 3): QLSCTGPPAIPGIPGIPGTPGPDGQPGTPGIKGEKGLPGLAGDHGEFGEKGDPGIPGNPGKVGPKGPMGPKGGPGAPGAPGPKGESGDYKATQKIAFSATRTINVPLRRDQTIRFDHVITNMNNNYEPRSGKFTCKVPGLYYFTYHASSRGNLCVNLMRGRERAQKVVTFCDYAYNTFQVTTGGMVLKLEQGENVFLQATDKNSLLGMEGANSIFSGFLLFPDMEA
T5 sequence (P02747 29-245 limits assumed, chain 3 of 3): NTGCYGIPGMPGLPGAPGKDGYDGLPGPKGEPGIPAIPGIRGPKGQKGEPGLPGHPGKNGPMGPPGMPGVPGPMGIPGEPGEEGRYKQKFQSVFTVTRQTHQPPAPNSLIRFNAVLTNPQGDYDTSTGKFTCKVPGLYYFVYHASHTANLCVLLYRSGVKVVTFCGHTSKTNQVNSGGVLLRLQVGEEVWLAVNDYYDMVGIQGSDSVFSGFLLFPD
T10 sequence (P08637 17-208 F176V limits assumed): as the sequence (P08637 17-208 F176V limits assumed) above
T12 sequence (P08637 17-208 limits assumed): as the sequence (P08637 17-208 F176V limits assumed) above, with V160F counted along it
T6 sequence (P12314 16-288 limits assumed): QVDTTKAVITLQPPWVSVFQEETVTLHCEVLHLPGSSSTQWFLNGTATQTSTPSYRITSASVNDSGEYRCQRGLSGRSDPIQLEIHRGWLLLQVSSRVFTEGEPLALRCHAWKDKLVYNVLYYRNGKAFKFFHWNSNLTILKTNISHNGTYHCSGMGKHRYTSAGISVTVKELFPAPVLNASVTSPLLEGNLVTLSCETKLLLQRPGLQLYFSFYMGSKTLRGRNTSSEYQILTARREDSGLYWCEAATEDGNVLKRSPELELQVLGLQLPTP
T7 sequence (O75015 17-200 limits assumed): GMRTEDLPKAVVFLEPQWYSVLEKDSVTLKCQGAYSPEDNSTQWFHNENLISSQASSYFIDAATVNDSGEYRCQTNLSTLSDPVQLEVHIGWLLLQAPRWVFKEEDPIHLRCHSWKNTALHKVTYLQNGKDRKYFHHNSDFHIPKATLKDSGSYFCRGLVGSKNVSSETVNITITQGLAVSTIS

ADCC EC50, fold lower than OCREVUS [1]: ~25 fold | fold higher affinity than OCREVUS [2]: ~15 fold | fold higher affinity than OCREVUS [3]: ~10 fold | Kd [4]: 64.1 nM | EC50 [5]: 983 ng/mL | EC50 [6]: 2600 ng/mL | Kd [7]: 680 nM | EC50 of ADCC assay Using Primary NK Cells (Raji target cells, LDH release) [8]: 49000 ng/mL | EC50 (read off the curve) [9]: ~3000 ng/mL | ADCC EC50 (Raji target cells, KILR CD16a effector cells) [10]: 0.00242 ng/mL | EC50 [11]: 0.00202 ng/mL | EC50 [12]: 63 ng/mL | CDC EC50 (Jeko-1 cells, rabbit serum complement) [13]: 670 ng/mL | Kd [14]: 20 nM | Kd [15]: 169 nM | Kd [16]: 42 nM | Kd [17]: 158 nM | Kd [18]: 23 nM | Kd [19]: 92 nM | Kd [20]: 56 nM
B1: TG-1101 (TG Therapeutics, Inc.) (antibody, human IgG1, kappa)
heavy: not shown
light: QIVLSQSPAILSASPGEKVTMTCRASSSVSYMHWYQQKPGSSPKPWIYATSNLASGVPARFSGSGSGTSYSFTISRVEAEDAATYYCQQWTFNPPTFGGGTRLEIKRTVAAPSVFIFPPSDEQLKSGTASVVCLLNNFYPREAKVQWKVDNALQSGNSQESVTEQDSKDSTYSLSSTLTLSKADYEKHKVYACEVTHQGLSSPVTKSFNRGEC
notes: Chimeric IgG1 made in YB2/0 rat hybridoma cells, with low-fucose N-glycans; also called ublituximab; Ubli

— patent publication US11965032 (TG THERAPEUTICS, dated 2024)
